{
  "source": "patent US20120277180A1",
  "about": "“Cofactors and Methods for Use for Individuals” (VITAPATH GENETICS, INC, priority 2009, published 2012)",
  "key": {"[1]": {"molecular_target": "T1, human MTHFR (Homo sapiens, UniProt P42898, A222V)", "test": "In vivo yeast complementation growth assay: MTHFR alleles in fol3 met13 haploid yeast, growth without methionine with titrated folinic acid", "type": "cell-based", "design": "expressed in transfected cells; host or cells: Saccharomyces cerevisiae fol3Δ::KanMX met13Δ::KanMX (S288c background), GAL1 promoter", "details": "50 p g/ml folate supplementation"}, "[2]": {"molecular_target": "T1, human MTHFR", "test": "Cell-free MTHFR enzyme activity assay in crude yeast extract", "type": "biochemical", "design": "expressed in transfected cells", "details": "cells grown at 50 ug/ml folinic acid"}},
  "data": [
    {"substance": "A222V: common functionally impaired human MTHFR variant, catalytic domain substitution A222V", "values": [
      {"measurement": "Reduction in growth rate", "setting": "[1]", "result": 50, "unit": "%"},
      {"measurement": "Drop in enzyme activity in cell-free assays", "setting": "[2]", "result": 50, "unit": "%"}
    ]}
  ]
}
